In publication PMC6086316, “Interactions between the Aggregatibacter actinomycetemcomitans secretin HofQ and host cytokines indicate a link between natural competence and interleukin-8 uptake” (Virulence, 2018):

molecular target: T1, human mature interleukin-1β (IL-1β, amino acids 117-269) (human); experiment: time-resolved fluorometric immunoassay (TRFIA); 60 pmol IL-8 or IL-1β coated on wells; emHofQ wild type and mutants 5 nM-2 μM, 4°C overnight; Eu-N1 anti-6xHis antibody; apparent Kd; conditions: both partners purified
T1 construct: Human mature IL-1β, amino acids 117-269; Expressed from pET-28bTEV; source: E. coli BL21 CodonPlus (DE3) RIL, purified (HisTrap, TEV cleavage, size-exclusion chromatography); not shown: His6, N-terminal, cleaved
T1 sequence (chain, as listed by the source): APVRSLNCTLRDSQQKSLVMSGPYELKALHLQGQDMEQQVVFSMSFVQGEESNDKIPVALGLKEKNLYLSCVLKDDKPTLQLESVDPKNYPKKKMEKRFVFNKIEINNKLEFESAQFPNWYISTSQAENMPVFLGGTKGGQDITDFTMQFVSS

| Binder | Kd [nM] |
| --- | --- |
| emHofQ_L1 (H136A, F137A, K139A) (domain or fragment, they already carry the substitutions; Secretin HofQ of Aggregatibacter actinomycetemcomitans, extramembranous domain, residues 27-195; The printed gene begins with ATG (Met, in the NdeI site) and ends with CTC GAG (Leu-Glu, XhoI site) before the His tag of pET36b; also called emHofQ mutant L1; source: E. coli BL21 CodonPlus (DE3) RIL, induced overnight at 16°C, purified (HisTrap, size-exclusion …)) QNPVFSIRLKQAPLVPTLQQLALAHNTNLIIDDELQGTVSLQLENVDLDQLFRSVAKIKQLDLWQENGIYYFTKGDTNTKFAGKMEEPFPLSLPMAEEPAQLNTATIKLAAAAASEVMKSLTGGSGSLLSPNGSITFDDRSNLLLIQDEPRSVRNIKKLIKELDKPIEQ | 450 ± 160 |
| emHofQ_L1L2 (H136A, F137A, K139A, D165A, R166A) (domain or fragment, they already carry the substitutions; Secretin HofQ of Aggregatibacter actinomycetemcomitans, extramembranous domain, residues 27-195; The printed gene begins with ATG (Met, in the NdeI site) and ends with CTC GAG (Leu-Glu, XhoI site) before the His tag of pET36b; also called emHofQ mutant L1L2; source: E. coli BL21 CodonPlus (DE3) RIL, induced overnight at 16°C, purified (HisTrap, size-exclusion …)) QNPVFSIRLKQAPLVPTLQQLALAHNTNLIIDDELQGTVSLQLENVDLDQLFRSVAKIKQLDLWQENGIYYFTKGDTNTKFAGKMEEPFPLSLPMAEEPAQLNTATIKLAAAAASEVMKSLTGGSGSLLSPNGSITFDAASNLLLIQDEPRSVRNIKKLIKELDKPIEQ | 440 ± 70 |
| emHofQ_L2 (D165A, R166A) (domain or fragment, they already carry the substitutions; Secretin HofQ of Aggregatibacter actinomycetemcomitans, extramembranous domain, residues 27-195; The printed gene begins with ATG (Met, in the NdeI site) and ends with CTC GAG (Leu-Glu, XhoI site) before the His tag of pET36b; also called emHofQ mutant L2; source: E. coli BL21 CodonPlus (DE3) RIL, induced overnight at 16°C, purified (HisTrap, size-exclusion …)) QNPVFSIRLKQAPLVPTLQQLALAHNTNLIIDDELQGTVSLQLENVDLDQLFRSVAKIKQLDLWQENGIYYFTKGDTNTKFAGKMEEPFPLSLPMAEEPAQLNTATIKLHFAKASEVMKSLTGGSGSLLSPNGSITFDAASNLLLIQDEPRSVRNIKKLIKELDKPIEQ | 330 ± 70 |
